In US20200308290A1 (AbbVie / Abbott, published 2020) one finds Kd data, which are given here for 15 molecules.

Substitutions are numbered along the chain they refer to. A value given as a limit tells only on which side of the number the result lay.

To fix the notation:
B1: Variant C44 (antibody, V domains shown)
VH: QVQLVQSGAEVKKPGSSVKVSCKASGYTFTSYRMHWVRQAPGQGLEWMGYISPKKGYTEYNQKFKDKATITADESTNTAYMELSSLRSEDTAVYYCARGGGVFDYWGQGTLVTVSS
VL: DIQMTQSPSTLSASVGDRVTITCSASSKISYMHWYQQKPGKAPKLLIYTTSDLASGVPARFSGSGSGTEFTLTISSLQPDDFATYYCHQRSTYPLTFGQGTKVEVK
B2: Variant C54 (antibody, V domains shown)
VH: B1 VH with K54R, K55S, Y57R
VL: B1 VL
B3: Variant C48 (antibody, V domains shown)
VH: B1 VH with S52R, K55S
VL: B1 VL
B4: Variant C49 (antibody, V domains shown)
VH: B1 VH with K54N
VL: B1 VL
B5: Variant C50 (antibody, V domains shown)
VH: B1 VH with K54N, K55S
VL: B1 VL
B6: Variant C60 (antibody, V domains shown)
VH: B1 VH with K54N, Y57R
VL: B1 VL
B7: Variant C52 (antibody, V domains shown)
VH: B1 VH with S52K, K54N, K55S
VL: B1 VL
B8: Variant C59 (antibody, V domains shown)
VH: B1 VH with S52R, K55S, Y57R
VL: B1 VL
B9: Variant C53 (antibody, V domains shown)
VH: B1 VH with K54R, Y57R
VL: B1 VL
B10: Variant C46 (antibody, V domains shown)
VH: B1 VH with S52K, K55S
VL: B1 VL
B11: Variant C47 (antibody, V domains shown)
VH: B1 VH with S52R
VL: B1 VL
B12: Variant C55 (antibody, V domains shown)
VH: B1 VH with Y57R
VL: B1 VL
B13: Variant C51 (antibody, V domains shown)
VH: B1 VH with S52K, K54N
VL: B1 VL
B14: Variant C45 (antibody, V domains shown)
VH: B1 VH with K55S
VL: B1 VL
B15: Variant C57 (antibody, V domains shown)
VH: B1 VH with S52K, K55S, Y57R
VL: B1 VL

The first test has as its target T1, cynomolgous monkey CD25 (cynomolgous monkey).
T1 construct: also called cmCD25; cm
The test can be described thus: SPR (BIAcore), cynomolgous CD25. Background: Surface plasmon resonance follows binding to a sensor surface in real time, without labels.
Usually Kd stands for the constant that tells how readily two partners part at equilibrium. Molecule B1 gave a Kd of 0.042 nM.

B2 yielded a Kd of 0.055 nM.

Turning to B3, the Kd stood at 0.053 nM.

As for B4, the Kd stood at 0.0079 nM.

As to B5, binding was characterised by a dissociation constant (Kd) of 0.026 nM.

As to B6, the Kd is < 0.0023 nM.

With B7, the affinity, expressed as Kd, was 0.075 nM.

B8 had a Kd of 0.05 nM.

B9: the Kd was < 0.0024 nM.

For B10, the Kd amounted to 0.011 nM.

In turn, B11 had a Kd of 0.1 nM.

Molecule B12 gave a Kd of 0.049 nM.

As to B13, binding was put at a Kd of 0.093 nM.

In turn, B14 returned a Kd of 0.055 nM.

Turning to B15, the Kd amounted to 0.078 nM.

The target in another test is T1, cynomolgous monkey CD25. The test can be described thus: SPR (BIAcore), cynomolgous CD25. This is another data set of the same source.
In turn, B1 came in with a Kd of 0.042 nM.

B2 returned a Kd of 0.055 nM.

In turn, B3 had a Kd of 0.053 nM.

For the molecule B4, binding was characterised by a dissociation constant (Kd) of 0.0079 nM.

Turning to B5, the Kd is 0.026 nM.

As to B6, the Kd was < 0.0023 nM.

Molecule B7 gave a Kd of 0.075 nM.

B8 displayed a Kd of 0.05 nM.

On to B9, for which the Kd was < 0.0024 nM.

B10 showed a Kd of 0.011 nM.

In turn, B11 registered a Kd of 0.1 nM.

B12: the Kd is 0.049 nM.

Molecule B13 returned a Kd of 0.093 nM.

B14 displayed a Kd of 0.055 nM.

For the molecule B15, binding was put at a Kd of 0.078 nM.
